# B1: Refmab #3 (antibody, human IgG1, V domains shown)
# VH: QVQLVQSGAEVKKPGSSVKVSCKASGYTFTDYNMHWVRQAPGQGLEWIGYIYPYNGGTGYNQKFKSKATITADESTNTAYMELSSLRSEDTAVYYCARGRPAMDYWGQGTLVTVSS
# VL: DIQMTQSPSSLSASVGDRVTITCRASESVDNYGISFMNWFQQKPGKAPKLLIYAASNQGSGVPSRFSGSGSGTDFTLTISSLQPDDFATYYCQQSKEVPWTFGQGTKVEIK
# notes: Tested in IgG format; human IgG1 Fc silent (PG-LALA)
# B2: Refmab #4 (antibody, human IgG1, V domains shown)
# VH: QVQLVQSGAEVKKPGESVKVSCKASGYTFTNYGMNWVKQAPGQGLEWMGWINTYTGEPTYADKFQGRVTMTTDTSTSTAYMEIRNLGGDDTAVYYCARWSWSDGYYVYFDYWGQGTSVTVSS
# VL: DIVMTQSPDSLTVSLGERTTINCKSSQSVLDSSTNKNSLAWYQQKPGQPPKLLLSWASTRESGIPDRFSGSGSGTDFTLTIDSPQPEDSATYYCQQSAHFPITFGQGTRLEIK
# notes: as for B1
# B3: Refmab #2 (antibody, human IgG1, V domains shown)
# VH: QVQLVQSGAEVKKPGSSVKVSCKASGGTFSDYAISWVRQAPGQGLEWMGRIIPILGVADYAQKFQGRVTITADKSTRTAYMELSSLRSEDTAVYYCARNWADAFDIWGQGTMVTVSS
# VL: DIQLTQSPSSLSASVGDRVTITCRASQGISSVLAWYQQKPGKAPKLLIYDASSLESGVPSRFSGSGSGTDFTLTISSLQPEDFATYYCQQFDSSITFGQGTKLEIK
# notes: as for B1
# Key:
# Assay in all cases: flow cytometry, IgG on cells expressing the mutant
# [1] = target: human CD33 variant Y50G (human, UniProt P20138 18-364)
# Description: (§1) An alanine scan on human CD33 was performed to the determine the residues on CD33 that are involved in binding to the antibodies investigated. […] Briefly, a mutation library of CD33 was created by high-throughput, site-directed mutagenesis. Each residue was individually mutated to alanine, with alanine codons mutated to serine. The mutant library was arrayed in 384-well microplates and transiently transfected into HEK293-T. Following transfection, cells were incubated with the indicated antibodies (IgG or Fab) at concentrations pre-determined using an independent immunofluorescence titration curve on wild type CD33. […] Binding of each antibody to each mutant clone was determined in duplicates. For each point, background fluorescence was subtracted from the raw data, which were then normalized to antibody reactivity with wild type CD33.
# (§2) Antibodies were screened for binding to the human CD33 variants in IgG format. […] For each mutation, background fluorescence was subtracted from the raw data, which were then normalized to antibody reactivity with wild-type CD33.
# [2] = target: human CD33 variant K52T (human, UniProt P20138 18-364)
# Chain of human CD33 variant K52T (P20138 18-364 K52T limits assumed): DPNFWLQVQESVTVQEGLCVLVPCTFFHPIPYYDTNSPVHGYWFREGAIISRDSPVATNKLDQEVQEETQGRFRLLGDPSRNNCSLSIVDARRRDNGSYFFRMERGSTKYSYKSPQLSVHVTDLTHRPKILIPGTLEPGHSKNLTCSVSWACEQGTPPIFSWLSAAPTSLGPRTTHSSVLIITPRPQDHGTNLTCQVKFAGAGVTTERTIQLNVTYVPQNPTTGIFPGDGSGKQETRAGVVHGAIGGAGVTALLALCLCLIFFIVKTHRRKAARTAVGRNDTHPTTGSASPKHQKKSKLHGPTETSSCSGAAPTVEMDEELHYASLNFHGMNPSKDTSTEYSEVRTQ
# Description: as §1, §2
# [3] = target: human CD33 variant Y50L (human, UniProt P20138 18-364)
# Description: as §1, §2
# [4] = target: human CD33 variant R122S (human, UniProt P20138 18-364)
# Description: as §1, §2
# [5] = target: human CD33 variant D51K (human, UniProt P20138 18-364)
# Chain of human CD33 variant D51K (P20138 18-364 D51K limits assumed): as the sequence (P20138 18-364 K52T limits assumed) above, with D34K, T35K counted along it
# Description: as §1, §2
# [6] = target: human CD33 variant I47E (human, UniProt P20138 18-364)
# Chain of human CD33 variant I47E (P20138 18-364 I47E limits assumed): as the sequence (P20138 18-364 K52T limits assumed) above, with I30E, T35K counted along it
# Description: as §1, §2
# [7] = target: human CD33 variant I47R (human, UniProt P20138 18-364)
# Chain of human CD33 variant I47R (P20138 18-364 I47R limits assumed): as the sequence (P20138 18-364 K52T limits assumed) above, with I30R, T35K counted along it
# Description: as §1, §2
# [8] = target: human CD33 variant M120L (human, UniProt P20138 18-364)
# Description: as §1, §2
# [9] = target: human CD33 variant P48F (human, UniProt P20138 18-364)
# Chain of human CD33 variant P48F (P20138 18-364 P48F limits assumed): as the sequence (P20138 18-364 K52T limits assumed) above, with P31F, T35K counted along it
# Description: as §1, §2
# [10] = target: human CD33 variant P48H (human, UniProt P20138 18-364)
# Chain of human CD33 variant P48H (P20138 18-364 P48H limits assumed): as the sequence (P20138 18-364 K52T limits assumed) above, with P31H, T35K counted along it
# Description: as §1, §2
# [11] = target: human CD33 variant D51N (human, UniProt P20138 18-364)
# Description: as §1, §2
# [12] = target: human CD33 variant Y50S (human, UniProt P20138 18-364)
# Description: as §1, §2
# [13] = target: human CD33 variant Y49T (human, UniProt P20138 18-364)
# Description: as §1, §2
# [14] = target: human CD33 variant I47N (human, UniProt P20138 18-364)
# Description: as §1, §2
# [15] = target: human CD33 variant M120V (human, UniProt P20138 18-364)
# Description: as §1, §2
# [16] = target: human CD33 variant P48T (human, UniProt P20138 18-364)
# Description: as §1, §2
# [17] = target: human CD33 variant R122T (human, UniProt P20138 18-364)
# Description: as §1, §2
# [18] = target: human CD33 variant I47P (human, UniProt P20138 18-364)
# Description: as §1, §2
# [19] = target: human CD33 variant Y127E (human, UniProt P20138 18-364)
# Description: as §1, §2
# [20] = target: human CD33 variant P48S (human, UniProt P20138 18-364)
# Chain of human CD33 variant P48S (P20138 18-364 P48S limits assumed): as the sequence (P20138 18-364 K52T limits assumed) above, with P31S, T35K counted along it
# Description: as §1, §2
# [21] = target: human CD33 variant Y49C (human, UniProt P20138 18-364)
# Description: as §1, §2
# [22] = target: human CD33 variant Y49P (human, UniProt P20138 18-364)
# Chain of human CD33 variant Y49P (P20138 18-364 Y49P limits assumed): as the sequence (P20138 18-364 K52T limits assumed) above, with Y32P, T35K counted along it
# Description: as §1, §2
# [23] = target: human CD33 variant Y49G (human, UniProt P20138 18-364)
# Description: as §1, §2
# [24] = target: human CD33 variant R122I (human, UniProt P20138 18-364)
# Description: as §1, §2
# [25] = target: human CD33 variant Y50P (human, UniProt P20138 18-364)
# Chain of human CD33 variant Y50P (P20138 18-364 Y50P limits assumed): as the sequence (P20138 18-364 K52T limits assumed) above, with Y33P, T35K counted along it
# Description: as §1, §2
# [26] = target: human CD33 variant Y50R (human, UniProt P20138 18-364)
# Chain of human CD33 variant Y50R (P20138 18-364 Y50R limits assumed): as the sequence (P20138 18-364 K52T limits assumed) above, with Y33R, T35K counted along it
# Description: as §1, §2
# [27] = target: human CD33 variant P48G (human, UniProt P20138 18-364)
# Description: as §1, §2
# [28] = target: human CD33 variant P48N (human, UniProt P20138 18-364)
# Chain of human CD33 variant P48N (P20138 18-364 P48N limits assumed): as the sequence (P20138 18-364 K52T limits assumed) above, with P31N, T35K counted along it
# Description: as §1, §2
# [29] = target: human CD33 variant Y49V (human, UniProt P20138 18-364)
# Description: as §1, §2
# [30] = target: human CD33 variant K52S (human, UniProt P20138 18-364)
# Description: as §1, §2
# [31] = target: human CD33 variant K52Y (human, UniProt P20138 18-364)
# Chain of human CD33 variant K52Y (P20138 18-364 K52Y limits assumed): as the sequence (P20138 18-364 K52T limits assumed) above, with T35Y counted along it
# Description: as §1, §2
# [32] = target: human CD33 variant Y50H (human, UniProt P20138 18-364)
# Description: as §1, §2
# [33] = target: human CD33 variant Y50I (human, UniProt P20138 18-364)
# Chain of human CD33 variant Y50I (P20138 18-364 Y50I limits assumed): as the sequence (P20138 18-364 K52T limits assumed) above, with Y33I, T35K counted along it
# Description: as §1, §2
# [34] = target: human CD33 variant P48Q (human, UniProt P20138 18-364)
# Chain of human CD33 variant P48Q (P20138 18-364 P48Q limits assumed): as the sequence (P20138 18-364 K52T limits assumed) above, with P31Q, T35K counted along it
# Description: as §1, §2
# [35] = target: human CD33 variant Y49S (human, UniProt P20138 18-364)
# Description: as §1, §2
# [36] = target: human CD33 variant Y129S (human, UniProt P20138 18-364)
# Description: as §1, §2
Binder,Mean % WT Binding [1],Mean % WT Binding [2],Mean % WT Binding [3],Mean % WT Binding [4],Mean % WT Binding [5],Mean % WT Binding [6],Mean % WT Binding [7],Mean % WT Binding [8],Mean % WT Binding [9],Mean % WT Binding [10],Mean % WT Binding [11],Mean % WT Binding [12],Mean % WT Binding [13],Mean % WT Binding [14],Mean % WT Binding [15],Mean % WT Binding [16],Mean % WT Binding [17],Mean % WT Binding [18],Mean % WT Binding [19],Mean % WT Binding [20],also measured
B1,91.2 % of WT,103 % of WT,106 % of WT,111 % of WT,88.9 % of WT,109 % of WT,83.2 % of WT,90.8 % of WT,100 % of WT,87.6 % of WT,107 % of WT,97.2 % of WT,96.5 % of WT,91.6 % of WT,51.1 % of WT,102 % of WT,103 % of WT,2.8 % of WT,21.5 % of WT,100 % of WT,Mean % WT Binding [21]: 59.2 % of WT; Mean % WT Binding [22]: 92.1 % of WT; Mean % WT Binding [23]: 108 % of WT; Mean % WT Binding [24]: 112 % of WT; Mean % WT Binding [25]: 103 % of WT; Mean % WT Binding [26]: 83 % of WT; Mean % WT Binding [27]: 108 % of WT; Mean % WT Binding [28]: 98.8 % of WT; Mean % WT Binding [29]: 106 % of WT; Mean % WT Binding [30]: 96.8 % of WT; Mean % WT Binding [31]: 41.7 % of WT; Mean % WT Binding [32]: 111 % of WT; Mean % WT Binding [33]: 92.8 % of WT; Mean % WT Binding [34]: 101 % of WT; Mean % WT Binding [35]: 107 % of WT
B2,4 % of WT,83.5 % of WT,1.9 % of WT,90.2 % of WT,42 % of WT,54.8 % of WT,66.2 % of WT,110 % of WT,0.3 % of WT,2.9 % of WT,76.4 % of WT,2.9 % of WT,2.8 % of WT,74.8 % of WT,100 % of WT,11.7 % of WT,93.2 % of WT,49 % of WT,104 % of WT,0.5 % of WT,Mean % WT Binding [36]: 107 % of WT; Mean % WT Binding [21]: 0.5 % of WT; Mean % WT Binding [22]: 1.2 % of WT; Mean % WT Binding [23]: 54.9 % of WT; Mean % WT Binding [24]: 85.8 % of WT; Mean % WT Binding [25]: 85.6 % of WT; Mean % WT Binding [26]: 0.3 % of WT; Mean % WT Binding [27]: 0.4 % of WT; Mean % WT Binding [28]: 3.8 % of WT; Mean % WT Binding [29]: 46.9 % of WT; Mean % WT Binding [30]: 85 % of WT; Mean % WT Binding [31]: 20.7 % of WT; Mean % WT Binding [32]: 2 % of WT; Mean % WT Binding [33]: 4.5 % of WT; Mean % WT Binding [34]: 2.1 % of WT
B3,104 % of WT,120 % of WT,119 % of WT,3.4 % of WT,2.7 % of WT,0.5 % of WT,1.6 % of WT,124 % of WT,68.7 % of WT,81.9 % of WT,96.7 % of WT,123 % of WT,76.3 % of WT,0.4 % of WT,95.5 % of WT,71.3 % of WT,1.5 % of WT,0.7 % of WT,105 % of WT,92.1 % of WT,Mean % WT Binding [36]: 102 % of WT; Mean % WT Binding [21]: 3.2 % of WT; Mean % WT Binding [22]: 6.9 % of WT; Mean % WT Binding [24]: 1.1 % of WT; Mean % WT Binding [25]: 95.8 % of WT; Mean % WT Binding [26]: 109 % of WT; Mean % WT Binding [27]: 80.8 % of WT; Mean % WT Binding [28]: 95.2 % of WT; Mean % WT Binding [29]: 90.4 % of WT; Mean % WT Binding [30]: 113 % of WT; Mean % WT Binding [31]: 21 % of WT; Mean % WT Binding [32]: 119 % of WT; Mean % WT Binding [33]: 126 % of WT; Mean % WT Binding [34]: 106 % of WT; Mean % WT Binding [35]: 87.2 % of WT
